This note sets out measurements from IntAct's records for PubMed 27314904.

B1: WW domain-binding protein 11 (Homo sapiens), Q9Y2W2 (parent)
chain: MGRRSTSSTKSGKFMNPTDQARKEARKRELKKNKKQRMMVRAAVLKMKDPKQIIRDMEKLDEMEFNPVQQPQLNEKVLKDKRKKLRETFERILRLYEKENPDIYKELRKLEVEYEQKRAQLSQYFDAVKNAQHVEVESIPLPDMPHAPSNILIQDIPLPGAQPPSILKKTSAYGPPTRAVSILPLLGHGVPRLPPGRKPPGPPPGPPPPQVVQMYGRKVGFALDLPPRRRDEDMLYSPELAQRGHDDDVSSTSEDDGYPEDMDQDKHDDSTDDSDTDKSDGESDGDEFVHRDNGERDNNEEKKSGLSVRFADMPGKSRKKKKNMKELTPLQAMMLRMAGQEIPEEGREVEEFSEDDDEDDSDDSEAEKQSQKQHKEESHSDGTSTASSQQQAPPQSVPPSQIQAPPMPGPPPLGPPPAPPLRPPGPPTGLPPGPPPGAPPFLRPPGMPGLRGPLPRLLPPGPPPGRPPGPPPGPPPGLPPGPPPRGPPPRLPPPAPPGIPPPRPGMMRPPLVPPLGPAPPGLFPPAPLPNPGVLSAPPNLIQRPKADDTSAATIEKKATATISAKPQITNPKAEITRFVPTALRVRRENKGATAAPQRKSEDDSAVPLAKAAPKSGPSVPVSVQTKDDVYEAFMKEMEGLL
B2: Polyglutamine-binding protein 1 (Homo sapiens), O60828 (parent)
chain: MPLPVALQTRLAKRGILKHLEPEPEEEIIAEDYDDDPVDYEATRLEGLPPSWYKVFDPSCGLPYYWNADTDLVSWLSPHDPNSVVTKSAKKLRSSNADAEEKLDRSHDKSDRGHDKSDRSHEKLDRGHDKSDRGHDKSDRDRERGYDKVDRERERDRERDRDRGYDKADREEGKERRHHRREELAPYPKSKKAVSRKDEELDPMDPSSYSDAPRGTWSTGLPKRNEAKTGADTTAAGPLFQQRPYPSPGAVLRANAEASRTKQQD

The first test covers variants of B1. As to conditions: with pqbp1_human PQBP1, O60828.
For R466A;P467A;P468A;G469A, the “effect of a mutation on the interaction” value is recorded as “decreasing interaction”.

The next test covers variants of B1. Particulars: with pqbp1_human PQBP1, O60828. The source holds these as a separate data set.
With P455A;R456A;L457A;L458A, the “effect of a mutation on the interaction” value is recorded as “decreasing interaction”.

The next test covers variants of B1. As to conditions: with pqbp1_human PQBP1, O60828. The source holds these as a separate data set.
P459A;P460A;G461A: the “effect of a mutation on the interaction” value was “decreasing interaction”.

The next test covers variants of B1. As to conditions: with pqbp1_human PQBP1, O60828. This is another data set of the same source.
For the variant P462A;P463A;P464A;G465A, the “effect of a mutation on the interaction” value is given as “disrupting interaction”.

In another test the parent is B2. Particulars: with wbp11_human WBP11, Q9Y2W2.
As to MPLPVALQTRLAKRGILKHLEPEPEEEIIAEDYDDDPVDYEATRLEGLPPSWYKVFDPSCGLPYYWNADTDLASWLSPHDPNSVVTKSAKKLRSSNADAEEKLDRSHDKSDRGHDKSDRSHEKLDRGHDKSDRGHDKSDRDRERGYDKVDRERERDRERDRDRGYDKADREEGKERRHHRREELAPYPKSKKAVSRKDEELDPMDPSSYSDAPRGTWSTGLPKRNEAKTGADTTAAGPLFQQRPYPSPGAVLRANAEASRTKQQD [V73A], the “effect of a mutation on the interaction” value is given as “decreasing interaction”.
On to MPLPVALQTRLAKRGILKHLEPEPEEEIIAEDYDDDPVDYEATRLEGLPPSWYKVFDPSCGLPYYANADTDLVSWLSPHDPNSVVTKSAKKLRSSNADAEEKLDRSHDKSDRGHDKSDRSHEKLDRGHDKSDRGHDKSDRDRERGYDKVDRERERDRERDRDRGYDKADREEGKERRHHRREELAPYPKSKKAVSRKDEELDPMDPSSYSDAPRGTWSTGLPKRNEAKTGADTTAAGPLFQQRPYPSPGAVLRANAEASRTKQQD [W66A], for which the “effect of a mutation on the interaction” value was “disrupting interaction”.
Still for that read-out and setting: under MPLPVALQTRLAKRGILKHLEPEPEEEIIAEDYDDDPVDYEATRLEGLPPSWYKVFDPSCGLPYCWNADTDLVSWLSPHDPNSVVTKSAKKLRSSNADAEEKLDRSHDKSDRGHDKSDRSHEKLDRGHDKSDRGHDKSDRDRERGYDKVDRERERDRERDRDRGYDKADREEGKERRHHRREELAPYPKSKKAVSRKDEELDPMDPSSYSDAPRGTWSTGLPKRNEAKTGADTTAAGPLFQQRPYPSPGAVLRANAEASRTKQQD [Y65C] stands “disrupting interaction”; under MPLPVALQTRLAKRGILKHLEPEPEEEIIAEDYDDDPVDYEATRLEGLPPSWYKVFDPSCGLPAYWNADTDLVSWLSPHDPNSVVTKSAKKLRSSNADAEEKLDRSHDKSDRGHDKSDRSHEKLDRGHDKSDRGHDKSDRDRERGYDKVDRERERDRERDRDRGYDKADREEGKERRHHRREELAPYPKSKKAVSRKDEELDPMDPSSYSDAPRGTWSTGLPKRNEAKTGADTTAAGPLFQQRPYPSPGAVLRANAEASRTKQQD [Y64A], “disrupting interaction”; under MPLPVALQTRLAKRGILKHLEPEPEEEIIAEDYDDDPVDYEATRLEGLPPSWYKVFDPSCGLPYYWNADTDLVSALSPHDPNSVVTKSAKKLRSSNADAEEKLDRSHDKSDRGHDKSDRSHEKLDRGHDKSDRGHDKSDRDRERGYDKVDRERERDRERDRDRGYDKADREEGKERRHHRREELAPYPKSKKAVSRKDEELDPMDPSSYSDAPRGTWSTGLPKRNEAKTGADTTAAGPLFQQRPYPSPGAVLRANAEASRTKQQD [W75A], “disrupting interaction”.
